Measurements: paper PMC2855743 (Journal of molecular biology, 2010)
Like-named read-outs stand apart in the source and are kept apart here.

What was measured:
SEC = target: the molecule itself; assay: SEC
[1] = target: T1, ComAC (ComA C-terminal DNA-binding domain) (Bacillus subtilis, UniProt P14204 146-214); assay: SPR
T1 sequence: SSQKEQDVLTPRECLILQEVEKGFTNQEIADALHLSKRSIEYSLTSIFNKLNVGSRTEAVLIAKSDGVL

[2] = target: T1, ComAC (ComA C-terminal DNA-binding …); assay: SPR; remark: listed apart in the source

Binder	stoichiometry N (SEC)	Kd [1] [nM]	other results
Full-length competence protein A (ComAFL) (natural protein, Bacillus subtilis, UniProt P14204 1-214, looked up) MKKILVIDDHPAVMEGTKTILETDSNLSVDCLSPEPSEQFIKQHDFSSYDLILMDLNLGGEVNGMELSKQILQENPHCKIIVYTGYEVEDYFEEAIRAGLHGAISKTESKEKITQYIYHVLNGEILVDFAYFKQLMTQQKTKPAPSSQKEQDVLTPRECLILQEVEKGFTNQEIADALHLSKRSIEYSLTSIFNKLNVGSRTEAVLIAKSDGVL	2	–	–
N-terminal domain of competence protein A (ComAN, residues 1-126) (domain or fragment, Bacillus subtilis, UniProt P14204 1-126, looked up) MKKILVIDDHPAVMEGTKTILETDSNLSVDCLSPEPSEQFIKQHDFSSYDLILMDLNLGGEVNGMELSKQILQENPHCKIIVYTGYEVEDYFEEAIRAGLHGAISKTESKEKITQYIYHVLNGEIL	2	–	–
N-terminal domain of competence protein A with asparagine at position 55 (ComAN-D55N, residues 1-126) (domain or fragment, Bacillus subtilis, UniProt P14204 1-126, looked up) MKKILVIDDHPAVMEGTKTILETDSNLSVDCLSPEPSEQFIKQHDFSSYDLILMNLNLGGEVNGMELSKQILQENPHCKIIVYTGYEVEDYFEEAIRAGLHGAISKTESKEKITQYIYHVLNGEIL	2	–	–
Wild type srfA (dsDNA) DNA 1: TTTCGGCATCCCGCATGAAACTTTTCAC DNA 2: GTGAAAAGTTTCATGCGGGATGCCGAAA	–	9.59	–
Consensus RE1-RE3 (dsDNA) DNA 1: TTGCGGCATCCCGCAAGAAACTTTGCGG DNA 2: CCGCAAAGTTTCTTGCGGGATGCCGCAA	–	–	Kd [2]: 11.3 nM
Consensus RE3 (dsDNA) DNA 1: TTTCGGCATCCCGCATGAAACTTTGCGG DNA 2: CCGCAAAGTTTCATGCGGGATGCCGAAA	–	4.94	–
